Measured values: patent US20190381184A1 (UNIVERSITY OF NORTH CAROLINA AT CHAPEL HILL, published 2019)

What was measured:
PD-L1 [1] = test: Octet binding kinetics
PD-L1 [2] = test: Octet (BLI); compared with the endogenous PD-1/PD-L1 interaction
PD-L1 [3] = test: Octet (BLI) binding kinetics of the trivalent PD-L1 trap with PD-L1

PD-L1, sequence (chain, as listed by the source): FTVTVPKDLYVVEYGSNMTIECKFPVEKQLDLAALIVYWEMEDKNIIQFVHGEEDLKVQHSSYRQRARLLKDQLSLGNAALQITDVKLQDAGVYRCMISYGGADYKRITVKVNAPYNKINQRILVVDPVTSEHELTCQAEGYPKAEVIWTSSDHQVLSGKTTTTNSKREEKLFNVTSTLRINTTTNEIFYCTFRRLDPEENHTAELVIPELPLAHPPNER

B1: trivalent PD-L1 trap (PD-1 extracellular domain - flexible linker - CMP-1 trimerization domain fusion, self-assembled trimer) (other)
chain: GSGPPTFSPALLVVTEGDNATFTCSFSNTSESFVLNWYRMSPSNQTDKLAAFPEDRSQPGQDSRFRVTQLPNGRDFHMSVVRARRNDSGTYLCGAISLAPKAQIKESLRAELRVTERRAEGPQPQPKPQPKPEPEPQPQGGSEEDPCACESILKFEAKVEGLLQALTRKLEAVSGRLAVLENRIIAAAGAPVPYPDPLEPRGGSHHHHHH
notes: also called trimeric trap; trivalent protein
For B1, the Kd (PD-L1 [1]) was ~0.0162 nM, the “fold higher than between endogenous PD-1 and PD-L1” value (PD-L1 [2]) was 10000 fold and the Kd (PD-L1 [3]) was ~0.016 nM.
